From patent publication US7265202 (University of California, dated 2007) come the findings set out here.

Test [1] deals with T1, STAT1 in IL6-treated murine M1 cells (murine, UniProt P42225 2-749, the filing says IL6 stimulation can induce tyrosine phosphorylation of STAT1).
T1 sequence (looked up): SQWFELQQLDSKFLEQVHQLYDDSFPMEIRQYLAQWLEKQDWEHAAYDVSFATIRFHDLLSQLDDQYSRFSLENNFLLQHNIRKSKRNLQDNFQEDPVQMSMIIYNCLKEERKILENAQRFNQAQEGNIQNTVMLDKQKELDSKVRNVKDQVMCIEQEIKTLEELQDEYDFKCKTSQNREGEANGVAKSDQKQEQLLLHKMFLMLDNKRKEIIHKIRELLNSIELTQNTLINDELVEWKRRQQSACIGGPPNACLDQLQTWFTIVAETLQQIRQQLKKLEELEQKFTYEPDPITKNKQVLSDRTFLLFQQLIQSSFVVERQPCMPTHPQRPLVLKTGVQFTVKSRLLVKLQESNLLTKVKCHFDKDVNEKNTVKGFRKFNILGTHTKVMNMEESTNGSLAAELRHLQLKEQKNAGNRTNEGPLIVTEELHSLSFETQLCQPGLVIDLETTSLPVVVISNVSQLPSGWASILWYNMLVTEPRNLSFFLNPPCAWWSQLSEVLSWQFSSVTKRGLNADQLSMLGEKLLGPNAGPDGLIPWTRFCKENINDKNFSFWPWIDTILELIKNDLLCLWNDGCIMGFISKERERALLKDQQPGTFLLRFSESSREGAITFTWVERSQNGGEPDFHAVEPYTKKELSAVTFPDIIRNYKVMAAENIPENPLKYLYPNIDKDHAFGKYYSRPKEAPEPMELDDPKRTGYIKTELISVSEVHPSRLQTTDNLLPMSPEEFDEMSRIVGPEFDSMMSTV
As to the kind of experiment: co-immunoprecipitation with anti-PIAS3c from M1 cells, blot reprobed with antibody to STAT1. As for the experimental part:
To identify which STAT protein interacts with PIAS3, protein extracts were prepared from murine myeloblast M1 cells, which were untreated or treated with IL6. Proteins immunoprecipitated with anti-PIAS3c were analyzed by protein immunoblot with anti-STAT3. STAT3 was present in a PIAS3 immunoprecipitate from IL6 treated M1 cells but not in an immunoprecipitate from untreated M1 cells (FIG. 2A). […] IL6 stimulation can induce tyrosine phosphorylation of STAT1 as well as STAT3 (Sadowski et al. (1993)). The protein blot was therefore washed and reprobed with antibody to STAT1. STAT1 was not present in PIAS3 immunoprecipitates (FIG. 2A). Furthermore, PIAS3 was not found to be associated with STAT1 in a number of cell lines treated with interferon-γ.
Protein extracts from M1 cells, untreated (−) or treated with IL6 for 10 min (+), were subjected to immunoprecipitation (IP) with anti-PIAS3c. The blot was probed with anti-STAT. The same blot was then reprobed with anti-PIAS3c. The filter was washed and reprobed with anti-STAT1.

In test [2] the target is T2, STAT1 in interferon-treated human cells (human, UniProt P42224 2-750, limits assumed, phosphotyrosine at Tyr-701 (IFN-induced)).
T2 construct: also called p-STAT1; wild type STAT1
T2 sequence (looked up): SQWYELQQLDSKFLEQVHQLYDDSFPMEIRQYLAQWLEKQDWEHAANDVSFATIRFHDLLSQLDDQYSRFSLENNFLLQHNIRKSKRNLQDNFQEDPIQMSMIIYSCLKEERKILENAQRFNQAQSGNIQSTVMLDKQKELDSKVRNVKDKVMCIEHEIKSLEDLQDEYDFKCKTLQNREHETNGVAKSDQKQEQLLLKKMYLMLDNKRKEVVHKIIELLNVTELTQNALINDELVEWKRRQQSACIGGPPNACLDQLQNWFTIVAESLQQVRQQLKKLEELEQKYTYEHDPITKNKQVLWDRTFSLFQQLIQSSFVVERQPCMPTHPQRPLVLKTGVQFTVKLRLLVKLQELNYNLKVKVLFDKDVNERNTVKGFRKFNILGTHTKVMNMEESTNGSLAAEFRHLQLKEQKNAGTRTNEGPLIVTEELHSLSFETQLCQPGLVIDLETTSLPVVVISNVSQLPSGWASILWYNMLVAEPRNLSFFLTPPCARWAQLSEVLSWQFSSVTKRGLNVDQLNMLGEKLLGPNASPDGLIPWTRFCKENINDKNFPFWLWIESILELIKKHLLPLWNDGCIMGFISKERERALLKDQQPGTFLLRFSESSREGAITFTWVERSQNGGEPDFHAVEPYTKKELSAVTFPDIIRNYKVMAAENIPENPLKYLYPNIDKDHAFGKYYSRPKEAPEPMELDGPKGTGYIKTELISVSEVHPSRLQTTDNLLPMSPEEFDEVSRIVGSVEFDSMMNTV
As to the kind of experiment: co-immunoprecipitation with anti-PIAS3c from HepG2 cells untreated or treated with IL6 or IFN-γ, anti-STAT1 blot.

The target of test [3] is STAT3 in cytokine-treated human cells (CNTF, OM or IL6) (human, UniProt P40763 2-770, limits assumed, tyrosine phosphorylated after cytokine treatment (site not given)). Description: co-immunoprecipitation with anti-PIAS1n from HepG2 cells untreated or treated with IL6 or IFN-γ, anti-STAT3 blot.
Test [4] has as its target STAT2 in IFN-treated human Daudi B cells (human, UniProt P52630 1-851). Description: co-immunoprecipitation with anti-PIAS1n from IFN-treated Daudi B cells, immunoblot with anti-STAT1 and anti-STAT2. As for the experimental part:
Daudi cells were treated with […] for the times indicated. Whole cell extracts were prepared and one half of these extracts were used for immunoprecipitation with anti-PIAS1n (left panel). Immunoprecipitation was carried out as described in (A) and the filter was probed with anti-STAT1 and anti-STAT2. The same filter was washed and reprobed with anti-PIAS1n (lower panel). The other half of protein extracts were subjected to immunoprecipitation with anti-STAT1 (right panel). The filter was probed with a mixture of anti-STAT1 and anti-STAT2 antibodies. p-STAT1: phosphorylated STAT1.
Human Daudi B cells were untreated or treated with IFN-α for various time periods. Protein extracts were prepared and subjected to immunoprecipitation with anti-PIAS1n followed by immunoblot with both anti-STAT1 and STAT2 antibodies. While STAT1 was associated with PIAS1 in IFN-treated cells, STAT2 was absent in PIAS1 immunoprecipitates (FIG. 8B).
(In general: A western blot detects proteins with antibodies after separation by electrophoresis.)

STAT3 in cytokine-treated human cells (CNTF, OM or IL6), sequence (P40763 2-770 limits assumed): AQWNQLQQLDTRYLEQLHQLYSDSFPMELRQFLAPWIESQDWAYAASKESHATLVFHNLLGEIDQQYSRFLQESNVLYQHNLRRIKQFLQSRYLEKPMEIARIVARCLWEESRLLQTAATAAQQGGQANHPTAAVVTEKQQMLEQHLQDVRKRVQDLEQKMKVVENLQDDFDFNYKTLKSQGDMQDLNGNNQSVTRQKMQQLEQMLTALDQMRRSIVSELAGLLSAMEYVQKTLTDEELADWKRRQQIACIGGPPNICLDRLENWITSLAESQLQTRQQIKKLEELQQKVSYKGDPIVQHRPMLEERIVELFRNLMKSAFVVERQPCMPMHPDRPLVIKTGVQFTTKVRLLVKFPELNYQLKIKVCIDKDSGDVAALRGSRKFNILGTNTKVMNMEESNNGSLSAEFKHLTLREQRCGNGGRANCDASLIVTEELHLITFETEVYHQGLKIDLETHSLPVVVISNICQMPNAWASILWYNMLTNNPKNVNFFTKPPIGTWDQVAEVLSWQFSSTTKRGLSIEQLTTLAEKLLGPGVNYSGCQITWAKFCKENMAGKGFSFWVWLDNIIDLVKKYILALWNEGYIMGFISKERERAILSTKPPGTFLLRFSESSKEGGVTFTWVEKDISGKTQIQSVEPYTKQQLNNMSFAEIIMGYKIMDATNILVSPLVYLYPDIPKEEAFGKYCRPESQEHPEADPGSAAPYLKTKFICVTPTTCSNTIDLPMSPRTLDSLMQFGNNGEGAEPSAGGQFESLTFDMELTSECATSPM
STAT2 in IFN-treated human Daudi B cells, sequence (P52630 whole entry): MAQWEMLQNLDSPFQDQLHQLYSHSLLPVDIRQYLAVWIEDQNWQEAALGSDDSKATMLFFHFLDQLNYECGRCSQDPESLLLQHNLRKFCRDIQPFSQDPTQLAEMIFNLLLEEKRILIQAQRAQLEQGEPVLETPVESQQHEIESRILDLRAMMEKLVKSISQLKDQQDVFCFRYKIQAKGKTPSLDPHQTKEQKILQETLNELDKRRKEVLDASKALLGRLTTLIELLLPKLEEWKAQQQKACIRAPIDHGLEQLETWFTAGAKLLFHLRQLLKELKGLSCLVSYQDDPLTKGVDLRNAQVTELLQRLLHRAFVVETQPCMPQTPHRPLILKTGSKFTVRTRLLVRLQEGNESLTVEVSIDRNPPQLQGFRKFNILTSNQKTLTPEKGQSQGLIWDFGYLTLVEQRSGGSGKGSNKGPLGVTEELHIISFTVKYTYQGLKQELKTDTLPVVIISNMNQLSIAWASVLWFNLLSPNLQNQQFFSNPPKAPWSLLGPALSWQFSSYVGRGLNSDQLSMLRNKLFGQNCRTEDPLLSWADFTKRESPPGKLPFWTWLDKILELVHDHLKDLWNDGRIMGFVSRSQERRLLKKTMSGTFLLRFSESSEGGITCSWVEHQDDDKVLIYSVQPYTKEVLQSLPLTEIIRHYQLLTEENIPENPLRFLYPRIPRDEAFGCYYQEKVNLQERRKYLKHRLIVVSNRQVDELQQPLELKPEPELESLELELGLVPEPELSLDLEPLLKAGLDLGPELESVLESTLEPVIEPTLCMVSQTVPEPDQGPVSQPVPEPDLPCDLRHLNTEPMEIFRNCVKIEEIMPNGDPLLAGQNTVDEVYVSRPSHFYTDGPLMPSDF

B1: murine PIAS3 (other)
chain: MVMSFRVSELQVLLGFAGRNKSGRKHELLAKALHLLKSSCAPSVQMKIKELYRRRFPRKTLGPSDLSLLSLPPGTSPPVHPDVTMKPLPFYEVYGELIRPTTLASTSSQRFEEAHFTFALTPQQLQQILTSREVLPGAKCDYTIQVQLRFCLCETSCPQEDYFPPNLFVKVNGKLCPLPGYLPPTKNGAEPRGPAVRSTSHPWLDSQPLSPTPSLLIGHLSLDGITPCPCLVRQLTAGTLLQKLRAKGIRNPDHSRALIKEKLTADPDSEVATTSLPGVTHVPARKMRLTVPCRALTCAHLQSFDAALYLQMNEKKPTWTCPVCDKKAPYESLIIDGLFMEILNSCSDDDEIQFMEDGSWCPMKPKKEASEVCPPPGYGLDGLQYSAVQEGIQPESKKRVEVIDLTIESSSDEEDLPPTKKHCSPTSAAIPALPGSKGALTSGHQPSSVLRSPAMGTLGSDFLSSLPVHEYPPAFPLGADIQGLDLFSFLQTESQQYGPSVIISLDEQDTLGHFFQYRGTPSHFLGPLAPTLGSCHGSSTPAPPPGRVSSIVAPGSSLREGHGGPLPSGPSLTGCRSDVISLD
notes: Endogenous protein immunoprecipitated with anti-PIAS3c from M1 cell extracts; also called mPIAS3; mouse PIAS3
As for B1, the binding result in test [1] is recorded as “no binding”.

B2: human PIAS3 (other)
chain: MVMSFRVSELQVLLGFAGRNKSGRKHELLAKALHLLKSSCAPSVQMKIKELYRRRFPRKTLGPSDLSLLSLPPGTSPPVHPDVTMKPLPFYEVYGELIRPTTLASTSSQRFEEAHFTFALTPQQLQQILTSREVLPGAKCDYTIQVQLRFCLCETSCPQEDYFPPNLFVKVNGKLCPLPGYLPPTKNGAEPRGPAVRSTSHPWLDSQPLSPTPSLLIGMLSLDGITPCPCLVRQLTAGTLLQKLRAKGIRNPDHSRALIKEKLTADPDSEVATTSLPGVTHVPARKMRLTVPCRALTCAHLQSFDAALYLQMNEKKPTWTCPVCDKKAPYESLIIDGLFMEILNSCSDCDEIQFMEDGSWCPMKPKKEASEVCPPPGYGLDGLQYSAVQEGIQPESKKRVEVIDLTIESSSDEEDLPPTKKQCSVTSAAIPALLGSKGVLTSGHQPSSVLRSPAMGTLGSDFLSSLPVHEYPPAFPLGADIQGLDLFSFLQTESQQYGPSVIISLDEQDTLGHFFQYRGTPSHFLGPLAPTLGSCHGSSTPAPPPGRVSSIVAPGSSLREGHGGPLPSGPSLTGCRSDVISLD
notes: Endogenous protein immunoprecipitated with anti-PIAS3c from human HepG2 cells; also called hPIAS3
In the case of B2, in test [2], the binding result is recorded as “no binding”.

B3: human PIAS1 (other)
chain: ADSAELKQMVMSLRVSELQVLLGYAGRNKHGRKHELLTKALHLLKAGCSPAVQMKIKELYRRRFPQKIMTPADLSIPNVHSSPMPATLSPSTIPQLTYDGHPASSPLLPVSLLGPKHKLELPHLTSALHPVHPDIKLQKLPFYDLLDELIKPTSLASDNSQRFRETCFAFALTPQQVQQISSSMDISGTKCDFTVQVQLRFCLSETSCPQEDHFPPNLCVKVNTKPCSLPGYLPPTKNGVEPKRPSRPINITSLVRLSTTVPNTMCSWTAEIGRNYSMAVYLVKQLSSTVLLQRLRAKGIRNPDHSRALIKEKLTADPDSEIATTSLRVSLLCPLGKMRLTIPCRALTCSHLQCFDATLYIQMNEKKPTWVCPVCDKKAPYEHLIIDGLFMEILKYCTDCDEIQFKEDGTWAPMRSKKEVQEVSASYNGVDGCLSSTLEHQVASHHQSSNKNKKVEVIDLTIDSSSDEEEEEPSAKRTCPSLSPTSPLNNKGILSLPHQASPVSRTPSLPAVDTSYINTSLIQDYRHPFHMTPMPYDLQGLDFFPFLSGDNQHYNTSLLAAAAAAVSDDQDLLHSSRFFPYTSSQMFLDQLSAGGSTSLPTTNGSSSGSNSSLVSSNSLRESHSHTVTNRSSTDTASIFGIIPDIISLD
notes: also called hPIAS1
Take B3: the binding result in test [3] and in test [4] was “no binding” each time.
